Test results as given in the supplement of paper PMC9112550, “Optimization of the antimicrobial peptide Bac7 by deep mutational scanning” (BMC Biology, 2022).

Tested on: Escherichia coli TOP10
Experiment: shrunken log2 fold change of peptide-encoding DNA abundance (4.5 h post-induction vs induction); higher = less antimicrobial activity (less host growth inhibition)
Conditions: time post-induction: 4.5 h; library: site-saturation at positions 5, 18, 19, 20
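Further: peptides expressed intracellularly from a pBAD plasmid library in pooled LB shake-flask culture, induced with 0.3% L-arabinose, DNA abundance read by NGS, three biological replicates, DESeq2 with apeglm shrinkage.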

Sequence	shrunken log2 fold change
RRIRWRPPRLPRPRPRPPFMPRP	0.0466
RRIRVRPPRLPRPRPRPHIMPRP	-0.339
RRIRFRPPRLPRPRPRPMDPPRP	0.0482
RRIRVRPPRLPRPRPRPETSPRP	-0.369
RRIRTRPPRLPRPRPRPCGSPRP	0.00855
RRIRVRPPRLPRPRPRPNGHPRP	-0.0787
RRIRLRPPRLPRPRPRPTLAPRP	0.423
RRIRYRPPRLPRPRPRPDTIPRP	-0.145
RRIRLRPPRLPRPRPRPKGFPRP	-0.109
RRIRYRPPRLPRPRPRPNTCPRP	-0.155
RRIRSRPPRLPRPRPRPHGSPRP	-0.0567
RRIRERPPRLPRPRPRPYCFPRP	-0.511
RRIRARPPRLPRPRPRPSQWPRP	0.24
RRIRDRPPRLPRPRPRPCTAPRP	0.00714
RRIRWRPPRLPRPRPRPVWPPRP	0.909
RRIRARPPRLPRPRPRPRASPRP	0.797
RRIRYRPPRLPRPRPRPCVAPRP	-0.11
RRIRKRPPRLPRPRPRPHDSPRP	-0.0516
RRIRHRPPRLPRPRPRPFSAPRP	-0.186
RRIRYRPPRLPRPRPRPLKWPRP	-0.258
RRIRKRPPRLPRPRPRPMMQPRP	0.405
RRIRMRPPRLPRPRPRPIDHPRP	0.0383
RRIRHRPPRLPRPRPRPHSRPRP	0.0183
RRIRLRPPRLPRPRPRPEHGPRP	0.00489
RRIRIRPPRLPRPRPRPFGAPRP	-0.143

Sequence	shrunken log2 fold change
RRIRWRPPRLPRPRPRPMKFPRP	-0.278
RRIRQRPPRLPRPRPRPWMRPRP	0.131
RRIRMRPPRLPRPRPRPTVQPRP	-0.0862
RRIRIRPPRLPRPRPRPCAPPRP	-0.506
RRIRIRPPRLPRPRPRPSTKPRP	-1.14
RRIRIRPPRLPRPRPRPKNQPRP	-0.359
RRIRNRPPRLPRPRPRPSFQPRP	-0.274
RRIRSRPPRLPRPRPRPTKEPRP	-0.441
RRIRQRPPRLPRPRPRPGQKPRP	-0.00973
RRIRRRPPRLPRPRPRPDMYPRP	-0.315
RRIRLRPPRLPRPRPRPCELPRP	-0.358
RRIRMRPPRLPRPRPRPPLEPRP	0.873
RRIRCRPPRLPRPRPRPVKEPRP	-0.0734
RRIRVRPPRLPRPRPRPNTKPRP	0.181
RRIRMRPPRLPRPRPRPVNEPRP	0.0186
RRIRIRPPRLPRPRPRPVRVPRP	0.458
RRIRLRPPRLPRPRPRPFWHPRP	-0.0379
RRIRTRPPRLPRPRPRPSRIPRP	-0.179
RRIRWRPPRLPRPRPRPQPWPRP	0.363
RRIRVRPPRLPRPRPRPTNMPRP	-0.472
RRIRTRPPRLPRPRPRPHKTPRP	-0.035
RRIRIRPPRLPRPRPRPQPTPRP	0.115
RRIRSRPPRLPRPRPRPVFSPRP	-0.43
RRIRHRPPRLPRPRPRPLNLPRP	0.00301
RRIRRRPPRLPRPRPRPASWPRP	0.337

Sequence	shrunken log2 fold change
RRIRCRPPRLPRPRPRPFPMPRP	-0.274
RRIRKRPPRLPRPRPRPPEEPRP	1.79
RRIRARPPRLPRPRPRPGNLPRP	-0.232
RRIRRRPPRLPRPRPRPSRIPRP	0.157
RRIRGRPPRLPRPRPRPDTKPRP	0.239
RRIRSRPPRLPRPRPRPIPYPRP	-0.344
RRIRDRPPRLPRPRPRPHTWPRP	-0.491
RRIRKRPPRLPRPRPRPDLMPRP	0.0729
RRIRHRPPRLPRPRPRPTVWPRP	0.123
RRIRWRPPRLPRPRPRPNWRPRP	0.184
RRIRWRPPRLPRPRPRPGIGPRP	0.433
RRIRLRPPRLPRPRPRPLVAPRP	0.343
RRIRPRPPRLPRPRPRPAMSPRP	0.128
RRIRARPPRLPRPRPRPCQNPRP	0.105
RRIRPRPPRLPRPRPRPTQFPRP	0.274
RRIRKRPPRLPRPRPRPEEIPRP	0.00253
RRIRSRPPRLPRPRPRPGFGPRP	0.463
RRIRVRPPRLPRPRPRPQVKPRP	-0.016
RRIRERPPRLPRPRPRPPLDPRP	0.0357
RRIRIRPPRLPRPRPRPTWWPRP	0.0347
RRIRDRPPRLPRPRPRPCYSPRP	-0.0729
RRIRRRPPRLPRPRPRPHHWPRP	0.0825
RRIRRRPPRLPRPRPRPGNHPRP	0.0323
RRIRWRPPRLPRPRPRPKVTPRP	-0.165
RRIRPRPPRLPRPRPRPERTPRP	0.291
